In this assay the target is receptor binding domain (RBD) of the SARS-CoV-2 Spike protein (SARS-CoV-2, UniProt P0DTC2 319-541).

B1: nanobody NM1230 (VHH)
VHH: QVQLVESGGGLVRPGGSLRLSCVGSGFTFSGYAMNWYRQAPGKALELVAGISNAGDLTHYEEPMKGRVAISRANDKNTVYLQMDDLKPEDTAVYRCHAPGVRVGTGERKDVWGQGAQVTVSS
On to B1, for which the IC50 came out at 2.12 nM and the affinity, expressed as Kd, was 8.23 nM.

B2: nanobody NM1229 (VHH)
VHH: EVQLQESGGGLVQPGESLRLSCAASGRTHDWYTMGWFRQAPGKEREFVARINWSSGMTYYADSVKGRFTISRDNPKNTVYLQMNSLTPDDTAVYYCNVHPFTSPDYWGQGTRVTVSS
In turn, B2 yielded an IC50 of 38 nM.
